± gives the standard deviation of the averaged measurements.
Experiment: total protein half-life in vivo (active degradation + dilution); higher = more stable protein
[1] = wild type E. coli NCM3722, growth: C-lim chemostat, doubling time 6 h
[2] = wild type E. coli NCM3722, growth: C-lim chemostat, doubling time 12 h
[3] = E. coli NCM3722 delta-clpP delta-lon delta-hslV, growth: N-lim chemostat, doubling time 6 h
[4] = wild type E. coli NCM3722, growth: P-lim chemostat, doubling time 12 h
[5] = E. coli NCM3722 delta-hslV, growth: N-lim chemostat, doubling time 6 h
[6] = E. coli NCM3722 delta-lon, growth: N-lim chemostat, doubling time 6 h
[7] = E. coli NCM3722 delta-smpB, growth: N-lim chemostat, doubling time 6 h
[8] = wild type E. coli NCM3722, growth: C-lim chemostat, doubling time 3 h
[9] = wild type E. coli NCM3722, growth: N-lim chemostat, doubling time 6 h
[10] = wild type E. coli NCM3722, growth: N-lim chemostat, doubling time 12 h
[11] = wild type E. coli NCM3722, growth: P-lim chemostat, doubling time 6 h
[12] = E. coli NCM3722 delta-clpP, growth: N-lim chemostat, doubling time 6 h

| Sequence | total protein half-life in vivo [1] | total protein half-life in vivo [2] | total protein half-life in vivo [3] | total protein half-life in vivo [4] | total protein half-life in vivo [5] | total protein half-life in vivo [6] | total protein half-life in vivo [7] | total protein half-life in vivo [8] | total protein half-life in vivo [9] | total protein half-life in vivo [10] | total protein half-life in vivo [11] | total protein half-life in vivo [12] |
| --- | --- | --- | --- | --- | --- | --- | --- | --- | --- | --- | --- | --- |
| MSFSEFYQRSINEPEQFWAEQARRIDWQTPFTQTLDHSNPPFARWFCEGRTNLCHNAIDRWLEKQPEALALIAVSSETEEERTFTFRQLHDEVNAVASMLRSLGVQRGDRVLVYMPMIAEAHITLLACARIGAIHSVVFGGFASHSVAARIDDAKPVLIVSADAGARGGKIIPYKKLLDDAISQAQHQPRHVLLVDRGLAKMARVSGRDVDFASLRHQHIGARVPVAWLESNETSCILYTSGTTGKPKGVQRDVGGYAVALATSMDTIFGGKAGSVFFCASDIGWVVGHSYIVYAPLLAGMATIVYEGLPTWPDCGVWWTIVEKYQVSRMFSAPTAIRVLKKFPTAEIRKHDLSSLEVLYLAGEPLDEPTASWVSNTLDVPVIDNYWQTESGWPIMAIARGLDDRPTRLGSPGVPMYGYNVQLLNEVTGEPCGVNEKGMLVVEGPLPPGCIQTIWGDDGRFVKTYWSLFSRPVYATFDWGIRDADGYHFILGRTDDVINVAGHRLGTREIEESISSHPGVAEVAVVGVKDALKGQVAVAFVIPKESDSLEDRDVAHSQEKAIMALVDSQIGNFGRPAHVWFVSQLPKTRSGKMLRRTIQAICEGRDPGDLTTIDDPASLDQIRQAMEE | 0.366 ± 0.12 h | 0.611 h | – | – | – | – | – | – | – | – | – | – |
| MELKKLMGHISIIPDYRQAWKMEHKLSDILLLTICAVISGAEGWEDIEDFGETHPDFLKQYGDFENGIPVHDTIARVVSCISPAKFHECFINWMRDCHSSDDKDVIAIDGKTLRHSYDKSRRRGAIHVISAFSTMHSLVIGQIKTDEKSNEITAIPELLNMLDIKGKIITTDAMGCQKDIAEKIQKQGGDYLFAVKGNQGRLNKAFEEKFPLKELNNPAHDSYAMSEKSHGREEIRLHIVCDVPDELIDFTFEWKGLKKLCVAVSFRSIIAEQKKELEMTVRYYISSADLTAEKFATAIRNHWHVENKLHWRLDVVMNEDDCKIRRGNAAELFSGIRHIAINILTNDKVFKAGLRRKMRKAAMDRNYLASVLTGSGLS | – | – | 6.51 h | 11.9 h | – | – | – | – | – | – | – | – |
| MRIHILGICGTFMGGLAMLARQLGHEVTGSDANVYPPMSTLLEKQGIELIQGYDASQLEPQPDLVIIGNAMTRGNPCVEAVLEKNIPYMSGPQWLHDFVLRDRWVLAVAGTHGKTTTAGMATWILEQCGYKPGFVIGGVPGNFEVSAHLGESDFFVIEADEYDCAFFDKRSKFVHYCPRTLILNNLEFDHADIFDDLKAIQKQFHHLVRIVPGQGRIIWPENDINLKQTMAMGCWSEQELVGEQGHWQAKKLTTDASEWEVLLDGEKVGEVKWSLVGEHNMHNGLMAIAAARHVGVAPADAANALGSFINARRRLELRGEANGVTVYDDFAHHPTAILATLAALRGKVGGTARIIAVLEPRSNTMKMGICKDDLAPSLGRADEVFLLQPAHIPWQVAEVAEACVQPAHWSGDVDTLADMVVKTAQPGDHILVMSNGGFGGIHQKLLDGLAKKAEAAQ | – | 12.236 ± 0.0033 h | 5.233 ± 0.034 h | 12.4 ± 0.71 h | 5.14 ± 0.089 h | 6.73 ± 0.28 h | 5.26 ± 0.38 h | 2.84 ± 0.21 h | 5.58 ± 0.38 h | 9.82 ± 1.3 h | 5.99 ± 0.1 h | – |
| MSHPALTQLRALRYCKEIPALDPQLLDWLLLEDSMTKRFEQQGKTVSVTMIREGFVEQNEIPEELPLLPKESRYWLREILLCADGEPWLAGRTVVPVSTLSGPELALQKLGKTPLGRYLFTSSTLTRDFIEIGRDAGLWGRRSRLRLSGKPLLLTELFLPASPLY | 4.27 ± 0.27 h | 7.06 ± 0.53 h | 4.9 ± 0.4 h | 8.85 ± 0.47 h | 3.04 ± 0.035 h | 3.5 ± 0.31 h | 2.14 ± 0.061 h | 2.41 ± 0.13 h | 3.15 ± 0.3 h | 4.66 ± 0.034 h | 4.77 ± 0.55 h | 2.28 ± 0.017 h |
| MIDKSAFVHPTAIVEEGASIGANAHIGPFCIVGPHVEIGEGTVLKSHVVVNGHTKIGRDNEIYQFASIGEVNQDLKYAGEPTRVEIGDRNRIRESVTIHRGTVQGGGLTKVGSDNLLMINAHIAHDCTVGNRCILANNATLAGHVSVDDFAIIGGMTAVHQFCIIGAHVMVGGCSGVAQDVPPYVIAQGNHATPFGVNIEGLKRRGFSREAITAIRNAYKLIYRSGKTLDEVKPEIAELAETYPEVKAFTDFFARSTRGLIR [P0A722] | 5.79 ± 0.17 h | 10.9 ± 0.052 h | 5.73 ± 0.15 h | 12.5 ± 0.48 h | 5.49 ± 0.17 h | 5.48 ± 0.32 h | 5.59 ± 0.7 h | 3.06 ± 0.068 h | 5.52 ± 0.27 h | 10.4 ± 0.94 h | 5.95 ± 0.41 h | 5.26 ± 0.2 h |
| MQTQKPTLELLTCEGAYRDNPTALFHQLCGDRPATLLLESADIDSKDDLKSLLLVDSALRITALGDTVTIQALSGNGEALLALLDNALPAGVESEQSPNCRVLRFPPVSPLLDEDARLCSLSVFDAFRLLQNLLNVPKEEREAMFFGGLFSYDLVAGFEDLPQLSAENNCPDFCFYLAETLMVIDHQKKSTRIQASLFAPNEEEKQRLTARLNELRQQLTEAAPPLPVVSVPHMRCECNQSDEEFGGVVRLLQKAIRAGEIFQVVPSRRFSLPCPSPLAAYYVLKKSNPSPYMFFMQDNDFTLFGASPESSLKYDATSRQIEIYPIAGTRPRGRRADGSLDRDLDSRIELEMRTDHKELSEHLMLVDLARNDLARICTPGSRYVADLTKVDRYSYVMHLVSRVVGELRHDLDALHAYRACMNMGTLSGAPKVRAMQLIAEAEGRRRGSYGGAVGYFTAHGDLDTCIVIRSALVENGIATVQAGAGVVLDSVPQSEADETRNKARAVLRAIATAHHAQETF | 5.7 ± 0.12 h | 9.57 ± 0.22 h | 4.74 ± 0.93 h | 10.7 ± 1.7 h | 3.1 ± 0.083 h | 3.6 ± 0.24 h | 3.3 ± 0.17 h | 2.93 ± 0.52 h | 3.25 ± 0.13 h | 5.08 ± 0.34 h | 6.71 ± 0.33 h | 3.4 ± 0.18 h |
| MWDVIDLSRWQFALTALYHFLFVPLTLGLIFLLAIMETIYVVTGKTIYRDMTRFWGKLFGINFALGVATGLTMEFQFGTNWSFYSNYVGDIFGAPLAMEALMAFFLESTFVGLFFFGWQRLNKYQHLLVTWLVAFGSNLSALWILNANGWMQYPTGAHFDIDTLRMEMTSFSELVFNPVSQVKFVHTVMAGYVTGAMFIMAISAWYLLRGRERNVALRSFAIGSVFGTLAIIGTLQLGDSSAYEVAQVQPVKLAAMEGEWQTEPAPAPFHVVAWPEQDQERNAFALKIPALLGILATHSLDKPVPGLKNLMAETYPRLQRGRMAWLLMQEISQGNREPHVLQAFRGLEGDLGYGMLLSRYAPDMNHVTAAQYQAAMRGAIPQVAPVFWSFRIMVGCGSLLLLVMLIALVQTLRGKIDQHRWVLKMALWSLPLPWIAIEAGWFMTEFGRQPWAIQDILPTYSAHSALTTGQLAFSLIMIVGLYTLFLIAEVYLMQKYARLGPSAMQSEQPTQQQG | – | – | 3.4 h | 2.11 h | 4.58 ± 0.54 h | 1.46 h | 1.93 h | – | 5.27 ± 0.94 h | 14.6 h | 0.869 h | – |
| MNNFNLHTPTRILFGKGAIAGLREQIPHDARVLITYGGGSVKKTGVLDQVLDALKGMDVLEFGGIEPNPAYETLMNAVKLVREQKVTFLLAVGGGSVLDGTKFIAAAANYPENIDPWHILQTGGKEIKSAIPMGCVLTLPATGSESNAGAVISRKTTGDKQAFHSAHVQPVFAVLDPVYTYTLPPRQVANGVVDAFVHTVEQYVTKPVDAKIQDRFAEGILLTLIEDGPKALKEPENYDVRANVMWAATQALNGLIGAGVPQDWATHMLGHELTAMHGLDHAQTLAIVLPALWNEKRDTKRAKLLQYAERVWNITEGSDDERIDAAIAATRNFFEQLGVPTHLSDYGLDGSSIPALLKKLEEHGMTQLGENHDITLDVSRRIYEAAR | 6.48 ± 1 h | 11.6 ± 0.92 h | – | 10.2 ± 0.89 h | 4.48 ± 0.25 h | 4.949 ± 0.041 h | 4.48 ± 0.23 h | 3.27 ± 0.089 h | 5.22 ± 0.38 h | 7.834 ± 0.065 h | 5.35 ± 0.47 h | 5.02 ± 0.23 h |
| MAKYNEKELADTSKFLSFVLRHKPEAIGIVLDREGWADIDKLILCAQKAGKRLTRALLDTVVATSDKKRFSYSSDGRCIRAVQGHSTSQVAISFAEKTPPQFLYHGTASRFLDEIKKQGLIAGERHYVHLSADEATARKVGARHGSPVILTVKAQEMAKRGLPFWQAENGVWLTSTVAVEFLEW | 2.25 ± 0.44 h | 5.97 h | 4.33 h | – | – | 2.51 h | 1.27 ± 0.11 h | 1.85 h | – | – | – | 1.59 h |
| MKTLSPAVITLLWRQDAAEFYFSRLSHLPWAMLLHSGYADHPYSRFDIVVAEPICTLTTFGKETVVSESEKRTTTTDDPLQVLQQVLDRADIRPTHNEDLPFQGGALGLFGYDLGRRFESLPEIAEQDIVLPDMAVGIYDWALIVDHQRHTVSLLSHNDVNARRAWLESQQFSPQEDFTLTSDWQSNMTREQYGEKFRQVQEYLHSGDCYQVNLAQRFHATYSGDEWQAFLQLNQANRAPFSAFLRLEQGAILSLSPERFILCDNSEIQTRPIKGTLPRLPDPQEDSKQAVKLANSAKDRAENLMIVDLMRNDIGRVAVAGSVKVPELFVVEPFPAVHHLVSTITAQLPEQLHASDLLRAAFPGGSITGAPKVRAMEIIDELEPQRRNAWCGSIGYLSFCGNMDTSITIRTLTAINGQIFCSAGGGIVADSQEEAEYQETFDKVNRILKQLEK | 5.38 ± 0.12 h | 11 ± 0.69 h | 5 ± 0.22 h | 12.2 ± 1.5 h | 4.358 ± 0.037 h | 4.5 ± 0.1 h | 4.47 ± 0.21 h | 3.57 ± 0.57 h | 4.31 ± 0.16 h | 7.82 ± 0.28 h | 6.33 ± 0.27 h | 4.56 ± 0.35 h |

Reference: the supplement of paper PMC11246515
